The source of these data is PMC4656213, “Structural basis for inhibition of the Tob-CNOT7 interaction by a fragment screening approach” (Protein & Cell, 2015).

Broadly, the stoichiometry N is the number of molecules, sites or subunits per partner or assembly.

For this test, the target named is T1, human CNOT7 (human, UniProt Q9UIV1 11-262).
T1 construct: CNOT7 (Caf1), human; A second preparation (N-terminal His6, pET-28b, Rosetta2) was made for the SPR screening; also called Caf1; CAF1; source: E. coli BL21 (DE3), purified following the protocol for wild-type Tob
The experiment in a line: ITC; CNOT7 at 0.05 mM in the cell, TobN138 (wild type or K63A) at 0.45 mM titrated in; room temperature; 20 mM HEPES pH 7.5, 150 mM NaCl, 5% DMSO; one-site model. Particulars: both partners purified. (In ITC the heat of successive injections is recorded.)

T1 sequence (Q9UIV1 11-262): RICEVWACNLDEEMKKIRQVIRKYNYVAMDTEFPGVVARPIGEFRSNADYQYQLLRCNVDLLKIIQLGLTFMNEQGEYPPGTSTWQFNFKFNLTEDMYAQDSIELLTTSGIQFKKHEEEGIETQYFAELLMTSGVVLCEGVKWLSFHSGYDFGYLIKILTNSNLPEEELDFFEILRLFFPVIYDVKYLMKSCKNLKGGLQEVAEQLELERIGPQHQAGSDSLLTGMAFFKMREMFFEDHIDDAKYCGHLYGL

B1: human Tob residues 1-138 (TobN138), wild type (domain or fragment, UniProt P50616 1-138, looked up)
chain: MQLEIQVALNFIISYLYNKLPRRRVNIFGEELERLLKKKYEGHWYPEKPYKGSGFRCIHIGEKVDPVIEQASKESGLDIDDVRGNLPQDLSVWIDPFEVSYQIGEKGPVKVLYVDDNNENGCELDKEIKNSFNPEAQV
notes: Tob (Tob1), human, residues 1-138, containing the Box A and Box B motifs; Cloned into pGEX-6P-1 via BamHI and XhoI; A second preparation (His6-SUMO, pET-28b, Rosetta2) was made for the SPR screening; also called Tob1; TobN138 WT
With B1, the “stoichiometry N” value is 0.611 ± 0.00797 sites.

B2: TobN138 K63A mutant (domain or fragment, human, UniProt P50616 1-138, looked up)
chain: MQLEIQVALNFIISYLYNKLPRRRVNIFGEELERLLKKKYEGHWYPEKPYKGSGFRCIHIGEAVDPVIEQASKESGLDIDDVRGNLPQDLSVWIDPFEVSYQIGEKGPVKVLYVDDNNENGCELDKEIKNSFNPEAQV
notes: Tob (Tob1), human, residues 1-138, with the point mutation K63A; Made by PCR mutagenesis with the human TobN138 expression plasmid as template; source: E. coli BL21 (DE3), purified following the protocol for wild-type Tob
On to B2, for which the “stoichiometry N” value came to 0.737 ± 0.00585 sites.
